The Immune Epitope Database (IEDB)
pKd: −log10 of the molar value.

Tests used:
HLA-A*69:01 = test: IEDB peptide-MHC binding, purified MHC/direct/fluorescence; filed as Kd, often an IC50 or EC50 that approximates it; ≥ and ≤ were set here for values at or beyond the usual limits of such assays
HLA-B*27:05 [1] = test: as above
HLA-A*01:01 [2] = test: as above
HLA-A*03:01 = test: as above
HLA-A*11:01 [3] = test: as above
HLA-A*24:02 = test: as above
HLA-B*44:02 = test: as above
HLA-B*07:02 = test: as above
HLA-B*58:01 = test: as above
HLA-B*40:01 = test: as above
HLA-B*15:01 [4] = test: as above
HLA-A*02:01 = test: as above
HLA-B*27:05 [5] = test: IEDB peptide-MHC binding, purified MHC/competitive/fluorescence; filed as Kd, often an IC50 or EC50 that approximates it; ≥ and ≤ were set here for values at or beyond the usual limits of such assays; settings: source organism: Vibrio vulnificus YJ016
HLA-B*46:01 = test: IEDB peptide-MHC binding, purified MHC/direct/fluorescence; filed as Kd, often an IC50 or EC50 that approximates it; ≥ and ≤ were set here for values at or beyond the usual limits of such assays
HLA-A*31:01 = test: as above
HLA-B*18:01 [6] = test: as above
HLA-B*57:01 [7] = test: as above; settings: source organism: Mycobacterium tuberculosis
HLA-B*51:01 = test: as above; settings: source organism: Mycobacterium tuberculosis
HLA-B*39:01 = test: as above; settings: source organism: Mycobacterium tuberculosis str. Haarlem
HLA-B*38:01 = test: as above; settings: source organism: Mycobacterium tuberculosis str. Haarlem
HLA-B*08:02 = test: as above
HLA-A*02:06 [8] = test: as above
HLA-B*48:01 = test: as above; settings: source organism: Mycobacterium tuberculosis
HLA-A*30:01 [9] = test: as above; settings: source organism: Mycobacterium tuberculosis str. Haarlem
HLA-B*15:17 [10] = test: as above; settings: source organism: Mycobacterium tuberculosis
HLA-A*01:01 [11] = test: IEDB peptide-MHC binding, purified MHC/competitive/fluorescence; filed as Kd, often an IC50 or EC50 that approximates it; ≥ and ≤ were set here for values at or beyond the usual limits of such assays; settings: source organism: Human immunodeficiency virus 1
HLA-B*18:01 [12] = test: as above; settings: source organism: Human immunodeficiency virus 1
HLA-A*11:01 [13] = test: as above; settings: source organism: Human immunodeficiency virus 1
HLA-A*26:02 = test: as above; settings: source organism: Human immunodeficiency virus 1
HLA-B*57:01 [14] = test: as above; settings: source organism: Human immunodeficiency virus 1
HLA-A*02:03 [15] = test: as above; settings: source organism: Human immunodeficiency virus 1
HLA-A*02:06 [16] = test: as above; settings: source organism: Human immunodeficiency virus 1
HLA-A*30:01 [17] = test: as above; settings: source organism: Human immunodeficiency virus 1
HLA-B*15:01 [18] = test: as above; settings: source organism: Human immunodeficiency virus 1
HLA-B*15:17 [19] = test: as above; settings: source organism: Human immunodeficiency virus 1
HLA-B*08:01 = test: IEDB peptide-MHC binding, purified MHC/direct/fluorescence; filed as Kd, often an IC50 or EC50 that approximates it; ≥ and ≤ were set here for values at or beyond the usual limits of such assays
HLA-B*15:09 = test: as above; settings: source organism: Vibrio cholerae V52
HLA-A*02:12 = test: as above; settings: source organism: Influenza A virus(A/swine/Shandong/fNY/2003(H9N2))
HLA-A*02:16 = test: as above; settings: source organism: Influenza A virus(A/swine/Shandong/fNY/2003(H9N2))
HLA-A*02:11 = test: as above; settings: source organism: Influenza A virus(A/swine/Shandong/fNY/2003(H9N2))
HLA-A*02:03 [20] = test: as above; settings: source organism: Influenza A virus(A/swine/Shandong/fNY/2003(H9N2))
HLA-A*02:19 = test: as above; settings: source organism: Influenza A virus(A/swine/Shandong/fNY/2003(H9N2))
[21] = source organism: Vibrio parahaemolyticus
[22] = source organism: Mycobacterium tuberculosis
[23] = source organism: Mycobacterium tuberculosis str. Haarlem
[24] = source organism: Vibrio cholerae
[25] = source organism: Vibrio cholerae V52
[26] = source organism: Influenza A virus (A/Viet Nam/HN/2004(H5N1))
[27] = source organism: Influenza A virus (A/Puerto Rico/8/34/Mount Sinai(H1N1))

With ISDPAFKVF the pKd (HLA-A*69:01; [21]) was ≤ 4.70, the pKd (HLA-B*27:05 [1]; [21]) was ≤ 4.70 and the pKd (HLA-A*01:01 [2]; [21]) was ≤ 4.70. The pKd (HLA-A*03:01; [21]) was ≤ 4.70, the pKd (HLA-A*11:01 [3]; [21]) was ≤ 4.70 and the pKd (HLA-A*24:02; [21]) was ≤ 4.70. The pKd (HLA-B*44:02; [21]) was ≤ 4.70, the pKd (HLA-B*07:02; [21]) was ≤ 4.70 and the pKd (HLA-B*58:01; [21]) was 7.76. For the same sequence, the pKd (HLA-B*40:01; [21]) was ≤ 4.70, the pKd (HLA-B*15:01 [4]; [21]) was 6.20 and the pKd (HLA-A*02:01; [21]) was ≤ 4.70.
For QQYTDEAPY, the pKd (HLA-B*27:05 [5]) was ≤ 4.70.
For RGRIGRTYL, the pKd (HLA-A*69:01; [22]) was ≤ 4.70, the pKd (HLA-B*46:01; [22]) was ≤ 4.70 and the pKd (HLA-A*31:01; [22]) was ≤ 4.70. The pKd (HLA-A*01:01 [2]; [22]) was ≤ 4.70, the pKd (HLA-A*03:01; [22]) was ≤ 4.70 and the pKd (HLA-B*18:01 [6]; [22]) was ≤ 4.70. For the same sequence, the pKd (HLA-A*11:01 [3]; [22]) was ≤ 4.70, the pKd (HLA-B*57:01 [7]) was ≤ 4.70 and the pKd (HLA-B*07:02; [22]) was 8.52. For the same sequence, the pKd (HLA-B*58:01; [22]) was ≤ 4.70, the pKd (HLA-B*51:01) was ≤ 4.70 and the pKd (HLA-B*39:01) was ≤ 4.70. For the same sequence, the pKd (HLA-B*38:01) was ≤ 4.70, the pKd (HLA-B*08:02; [23]) was ≤ 4.70 and the pKd (HLA-B*40:01; [22]) was ≤ 4.70. The pKd (HLA-A*02:06 [8]; [23]) was ≤ 4.70, the pKd (HLA-B*48:01) was 5.52 and the pKd (HLA-A*30:01 [9]) was 7.64. For the same sequence, the pKd (HLA-B*15:01 [4]; [22]) was ≤ 4.70, the pKd (HLA-B*15:17 [10]) was 7.16 and the pKd (HLA-A*02:01; [22]) was ≤ 4.70.
For RSLFNTIATLY, the pKd (HLA-A*01:01 [11]) was 5.90, the pKd (HLA-B*18:01 [12]) was 7.05 and the pKd (HLA-A*11:01 [13]) was 6.59. It also gave a pKd (HLA-A*26:02) of 5.67, a pKd (HLA-B*57:01 [14]) of 6.84 and a pKd (HLA-A*02:03 [15]) of 6.14. The pKd (HLA-A*02:06 [16]) was 6.69, the pKd (HLA-A*30:01 [17]) was ≤ 4.70 and the pKd (HLA-B*15:01 [18]) was 6.15. For the same sequence, the pKd (HLA-B*15:17 [19]) was 8.52.
In the case of RVHGATVFK, the pKd (HLA-A*69:01; [24]) was ≤ 4.70, the pKd (HLA-A*31:01; [24]) was 7.23 and the pKd (HLA-B*08:01; [25]) was ≤ 4.70. The pKd (HLA-B*27:05 [1]; [24]) was ≤ 4.70, the pKd (HLA-A*01:01 [2]; [24]) was ≤ 4.70 and the pKd (HLA-A*03:01; [24]) was 6.60. The pKd (HLA-B*15:09) was ≤ 4.70, the pKd (HLA-B*18:01 [6]; [24]) was ≤ 4.70 and the pKd (HLA-A*11:01 [3]; [24]) was 7.33. For the same sequence, the pKd (HLA-A*24:02; [24]) was ≤ 4.70, the pKd (HLA-B*44:02; [24]) was ≤ 4.70 and the pKd (HLA-B*07:02; [24]) was ≤ 4.70. For the same sequence, the pKd (HLA-B*58:01; [24]) was ≤ 4.70, the pKd (HLA-B*08:02; [25]) was ≤ 4.70 and the pKd (HLA-B*40:01; [24]) was ≤ 4.70. For the same sequence, the pKd (HLA-B*15:01 [4]; [24]) was ≤ 4.70 and the pKd (HLA-A*02:01; [24]) was ≤ 4.70.
VSPLAVTWW was tested, and the pKd (HLA-A*69:01; [26]) was ≤ 4.70, the pKd (HLA-B*46:01; [26]) was ≤ 4.70 and the pKd (HLA-B*08:01; [26]) was ≤ 4.70. For the same sequence, the pKd (HLA-B*27:05 [1]; [27]) was 6.79, the pKd (HLA-A*01:01 [2]; [26]) was ≤ 4.70 and the pKd (HLA-A*03:01; [27]) was 6.76. For the same sequence, the pKd (HLA-A*24:02; [26]) was ≤ 4.70, the pKd (HLA-B*44:02; [26]) was ≤ 4.70 and the pKd (HLA-B*07:02; [26]) was ≤ 4.70. For the same sequence, the pKd (HLA-A*02:12) was 5.45, the pKd (HLA-A*02:16) was 6.88 and the pKd (HLA-B*40:01; [26]) was ≤ 4.70. For the same sequence, the pKd (HLA-A*02:11) was 7.49, the pKd (HLA-A*02:03 [20]) was 7.54 and the pKd (HLA-A*02:06 [8]; source organism: Influenza A virus(A/swine/Shandong/fNY/2003(H9N2))) was ≤ 4.70. For the same sequence, the pKd (HLA-B*15:01 [4]; [27]) was 5.66, the pKd (HLA-A*02:19) was ≤ 4.70 and the pKd (HLA-A*02:01; [27]) was 5.97.
